Target: the molecule itself
Assay: SEC-MALS

Row | Protein | stoichiometry N
1 | lac repressor (LacI), functional dimeric form (residues 1-331) (domain or fragment, E. coli, UniProt P03023 1-331, looked up) MKPVTLYDVAEYAGVSYQTVSRVVNQASHVSAKTREKVEAAMAELNYIPNRVAQQLAGKQSLLIGVATSSLALHAPSQIVAAIKSRADQLGASVVVSMVERSGVEACKAAVHNLLAQRVSGLIINYPLDDQDAIAVEAACTNVPALFLDVSDQTPINSIIFSHEDGTRLGVEHLVALGHQQIALLAGPLSSVSARLRLAGWHKYLTRNQIQPIAEREGDWSAMSGFQQTMQMLNEGIVPTAMLVANDQMALGAMRAITESGLRVGADISVVGYDDTEDSSCYIPPLTTIKQDFRLLGQTSVDRLLQLSQGQAVKGNQLLPVSLVKRKTTLA | 2
2 | ribose repressor (RbsR) (natural protein, E. coli, UniProt P0ACQ0 1-330, looked up) MATMKDVARLAGVSTSTVSHVINKDRFVSEAITAKVEAAIKELNYAPSALARSLKLNQTHTIGMLITASTNPFYSELVRGVERSCFERGYSLVLCNTEGDEQRMNRNLETLMQKRVDGLLLLCTETHQPSREIMQRYPTVPTVMMDWAPFDGDSDLIQDNSLLGGDLATQYLIDKGHTRIACITGPLDKTPARLRLEGYRAAMKRAGLNIPDGYEVTGDFEFNGGFDAMRQLLSHPLRPQAVFTGNDAMAVGVYQALYQAELQVPQDIAVIGYDDIELASFMTPPLTTIHQPKDELGELAIDVLIHRITQPTLQQQRLQLTPILMERGSA | 2
